The record followed here is paper PMC9966811, “Comparison of Glyphosate-Degradation Ability of Aldo-Keto Reductase (AKR4) Proteins in Maize, Soybean and Rice” (International Journal of Molecular Sciences, 2023).

What all share (assay): purified protein
Common to all, as to conditions: NADPH 0.1 mM, pH 7.4, 25 °C, 10 mM beta-mercaptoethanol

Substrate in data set [1]: O=Cc1ccccc1
Format: biochemical, Zea mays.

Substrate in data set [2]: O=Cc1ccccc1
In kind it is biochemical, Oryza sativa.

Substrate in data set [3]: O=Cc1ccccc1
In kind it is biochemical, Echinochloa colona.

Broadly, the Km is the concentration of substrate that gives half-maximal velocity. Usually kcat stands for the number of substrate molecules converted per active site and unit of time at saturation.

B1: ZmAKR4 (Zea mays) (protein)
chain: MARHFVLNTGAKIPSVGLGTWQSDPGVVGNAVYAAVKAGYRHIDCARVYGNEKEIGLALKKLFEEGVVKREDLFITSKLWNDHHAPEDVPEALNDSLNDLQLEYLDLYLIHWPFRVKKGTNTSPENFVTPDFPATWGAMEKLYDAGKARAIGVSNFSSKKLGDLLAVARVPPAVDQVECHPGWQQTKLHSFCQSTGVHLTAYSPLGSPGTTWMNGNVLKEPIIISIAEKLGKTSAQVALRWNIQMGHSVLPKSTNEERIKQNLDVYDWSIPDDLLAKFSEIKQARLLRGNFIVNPESVYKTHEELWDGEL
notes: full CDS from leaf cDNA in pET32a (vector tag, about 50 kD), E. coli BL21, Ni-NTA
As to B1, in “purified protein [1]”, the Km turned out to be 1060 ± 290 µM and the catalytic constant (kcat) came to 0.7522 ± 0.0293 s⁻¹.

B2: OsAKR4-1 (Oryza sativa Japonica Group) (protein)
chain: MAKHFVLNTGAKIPSVGLGTWQSDPGVVGDAVYAAVKAGYRHIDCARMYKNENEVGIALKKLFEEGVVKREDLFITSKLWCDCHAPEDVPESLDKTLSDLQLEYLDLYLIHWPFRVKKGSGISNTEDYIPPDIPSTWGAMEKLYDSGKSRAIGVSNFSSKKLGDLLAVACVPPAVDQVECHPGWQQTKLHNFCQSTGVHLSAYSPLGSPGSTWMNSNVLKESVIISIAEKLGKTPAQVALHWNIQMGHSVLPKSVTEERIKQNIDVYDWSIPEDLLVKFSEIKQVRLLRGDVIVNPHSVYKTHEELWDGEI
notes: as for B1
As to B2, in “purified protein [2]”, the Michaelis-Menten constant (Km) was 2476 ± 540 µM and the kcat was 0.676 ± 0.0363 s⁻¹.

B3: EcAKR4 (Echinochloa colona) (protein)
chain: MARHFVLNTGAKIPSVGLGTWQSDPGVVGDAVYAAVKAGYRHIDCARVYGNEKEIGLALKKLFEEGVVKREDLFITSKLWNDHHAPEDVPEALNESLKDLQLDYLDLYLIHWPFRVKKGTNTSPENFITPDIPATWGAMEKLYDAGKARAIGVSNFSSKKLGDLLAVARVPPAVDQVECHPGWQQTKLHNFCQSTGVHLSAYSPLGSPGTTWMNGNVLKEPVIISIAEKLGKTPAQVALRWNIQMGHSVLPKSTNEERIKQNLDVYDWSIPDDLLAKFSEIKQARLLRGNFIVNPQSVYKTHEELWDGEL
notes: full CDS from leaf cDNA in pET32a as printed (about 40 kD on gel), E. coli BL21, Ni-NTA
Take B3: in the data set “purified protein [3]”, the Km turned out to be 870 ± 250 µM and the kcat stood at 0.7052 ± 0.0253 s⁻¹.
